Holding throughout (format): biochemical
One data set can be described thus: Reactions on laurate. As to conditions: laurate 2 mM, 5 hours, room temperature. On the procedure: Reactions on laurate. P450PMO activity on laurate was tested mixing the substrate (2 mM) with purified protein (up to 0.5 μM) in 100 mM KPi pH 8.0 buffer, and adding NADPH to final concentration of 1 mM. Reaction mixtures were incubated for 5 hours at room temperature under gentle stirring. Analysis of the hydroxylated products was carried out by derivatization with N-methyl-N-trimethylsilylheptafluorobutyramide (Aldrich) followed by GC analysis according to a published procedure. A control experiment was carried out using wild-type P450BM3.
Products from alkane reactions were identified and quantified by gas chromatography using authentic standards and calibration curves with internal standards. For the reactions with alkanes from pentane to decane, GC analyses were carried out using a Shimadzu GC-17A gas chromatograph, Agilent HP5 column (30 m×0.32 mm×0.1 μm film), 1 μL injection, FID detector, and the following separation program: 250° C. inlet, 250° C. detector, 50° C. oven for 3 min, 5° C./min gradient to 100° C., 25° C./min gradient to 230° C., and 230° C. for 3 min. […] Organic solutions were analyzed by FID-GC. […]

A short description of data set [1]: Kinetic constants for n-alkanes: pentane. As to conditions: N.a. = not active. How it is done:
(§1) Rate measurements. Initial rates of product formation were determined at 25° C. in 100 mM KPi pH 8.0 buffer using purified protein (100 nM) and a substrate concentration of 1.6 mM. In a 5 mL-vial, 20 μL of alkane solution (in ethanol) were dissolved in 400 μL KPi buffer, to which 500 μL enzyme solution at 100-200 nM was added. Reaction was initiated by adding 100 μL of 5 mM NADPH solution, followed by stirring at 300 rpm for 1 minute, and quenched by adding 200 μL chloroform and stirring at 800 rpm for 10 sec. Solutions were transferred to an Eppendorf tube, to which internal standard (10 μL 25 mM 1-bromohexane in ethanol) was added. Tubes were vortexed for 10 sec and centrifuged for 30 sec at 10,000 g. Organic phase was removed and analyzed by GC. For propane, reactions were carried out in a 5 mL-scale using 100-400 nM purified enzyme, propane-saturated buffer (propane concentration≈1.6 mM) and a final NADPH concentration of 500 μM. Reactions were stopped by addition of 200 μL H2SO4 conc. and analyzed by derivatization to alkyl nitrites followed by GC-ECD analysis as described below.
(§2) Products from alkane reactions were identified and quantified by gas chromatography using authentic standards and calibration curves with internal standards. For the reactions with alkanes from pentane to decane, GC analyses were carried out using a Shimadzu GC-17A gas chromatograph, Agilent HP5 column (30 m×0.32 mm×0.1 μm film), 1 μL injection, FID detector, and the following separation program: 250° C. inlet, 250° C. detector, 50° C. oven for 3 min, 5° C./min gradient to 100° C., 25° C./min gradient to 230° C., and 230° C. for 3 min. For butane and propane (TTN) reactions, GC analyses were carried out using a Hewlett-Packard 5890 Series II Plus gas chromatograph, Supelco SPB-1 column (60 m×0.52 mm×0.5 μm film), 0.5 μL injection, FID detector, and the following separation program: 250° C. inlet, 275° C. detector, 80° C. oven for 2 min, 10° C./min gradient to 110° C., 25° C./min gradient to 275° C., and 275° C. for 2.5 min. For ethane and propane (rate) reactions, analysis of reaction mixtures was carried out by derivatization to alkyl nitrites followed by GC-ECD analysis. For laurate, reaction product analysis was carried out by derivatization with N-methyl-N-trimethylsilylheptafluorobutyramide followed by extraction with hexane. Organic solutions were analyzed by FID-GC.
(§3) To further investigate the evolution of substrate specificity, kinetic constants for the C5 to C8 alkanes were determined from Michaelis-Menten plots (Table 19). The preference of 35E11 and its evolutionary predecessors for medium-chain alkanes is indicated by their high C8/C5 specificities ((kcat/Km)8/(kcat/Km)5˜100), where Km appears to be the major contributing factor. […]

Data set [2] is described as follows: Background NADPH oxidation rate in screen (cell lysate, no substrate). As to conditions: relative to 35-E11. The gist of the method:
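Absorbance change at 340 nm over 1 minute after adding NADPH to P450-containing cell lysate with no substrate, in 8 wells per mutant, compared with 8 equivalent 35-E11 reactions. Rates normalized to P450 concentration measured per well by CO binding.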

A short description of data set [3]: Kinetic constants for n-alkanes: hexane. As to conditions: N.a. = not active. On the procedure: as §1, §2, §3

Where a chain is given by its changes, count along the chain named. Names may count otherwise. “Also recorded” adds a separate entry of the source.

B1: Wild-type BM-3: wild-type cytochrome P450 BM-3 from Bacillus megaterium, SEQ ID NO:1 (protein, listed as Bacillus megaterium)
chain: TIKEMPQPKTFGELKNLPLLNTDKPVQALMKIADELGEIFKFEAPGRVTRYLSSQRLIKEACDESRFDKNLSQALKFVRDFAGDGLFTSWTHEKNWKKAHNILLPSFSQQAMKGYHAMMVDIAVQLVQKWERLNADEHIEVPEDMTRLTLDTIGLCGFNYRFNSFYRDQPHPFITSMVRALDEAMNKLQRANPDDPAYDENKRQFQEDIKVMNDLVDKIIADRKASGEQSDDLLTHMLNGKDPETGEPLDDENIRYQIITFLIAGHETTSGLLSFALYFLVKNPHVLQKAAEEAARVLVDPVPSYKQVKQLKYVGMVLNEALRLWPTAPAFSLYAKEDTVLGGEYPLEKGDELMVLIPQLHRDKTIWGDDVEEFRPERFENPSAIPQHAFKPFGNGQRACIGQQFALHEATLVLGMMLKHFDFEDHTNYELDIKETLTLKPEGFVVKAKSKKIPLGGIPSPSTEQSAKKVRKKAENAHNTPLLVLYGSNMGTAEGTARDLADIAMSKGFAPQVATLDSHAGNLPREGAVLIVTASYNGHPPDNAKQFVDWLDQASADEVKGVRYSVFGCGDKNWATTYQKVPAFIDETLAAKGAENIADRGEADASDDFEGTYEEWREHMWSDVAAYFNLDIENSEDNKSTLSLQFVDSAADMPLAKMHGAFSTNVVASKELQQPGSARSTRHLEIELPKEASYQEGDHLGVIPRNYEGIVNRVTARFGLDASQQIRLEAEEEKLAHLPLAKTVSVEELLQYVELQDPVTRTQLRAMAAKTVCPPHKVELEALLEKQAYKEQVLAKRLTMLELLEKYPACEMKFSEFIALLPSIRPRYYSISSSPRVDEKQASITVSVVSGEAWSGYGEYKGIASNYLAELQEGDTITCFISTPQSEFTLPKDPETPLIMVGPGTGVAPFRGFVQARKQLKEQGQSLGEAHLYFGCRSPHEDYLYQEELENAQSEGIITLHTAFSRMPNQPKTYVQHVMEQDGKKLIELLDQGAHFYICGDGSQMAPAVEATLMKSYADVHQVSEADARLWLQQLEEKGRYAKDVWAG
In the case of B1, the “hydroxylation products of laurate” value in the data set “Reactions on laurate” was “multiple hydroxylation products were detected”.

B2: 35-E11: P450 BM-3 variant, SEQ ID NO:7: 53-5H substitutions plus E464G and I710T (protein)
chain: TIKEMPQPKTFGELKNLPLLNTDKPVQALMKIADELGEIFKFEAPGCVTRYLSSQRLIKEACDESRFDKNLSQALKFFRDFSGDGLFTSWTHEINWKKAHNILLPSFSQQAMKGYHAMMVDIAVQLVQKWERLNADEHIEVSEDMTRLTLDTIGLCGFNYRFNSFYRDQPHPFIISMVRALDEVMNKLQRANPDDPAYDENKRQCQEDIKVMNDLVDKIIADRKARGEQSDDLLTQMLNGKDPETGEPLDDGNISYQIITFLIAGHETTSGLLSFALYFLVKNPHVLQKVVEEAARVLVDPVPSYKQVKQLKYVGMVLNEALRLWPTFPAFSLYAKEDTVLGGEYPLEKGDEVMVLIPQLHRDKTIWGDDVEEFRPERFENPSAIPQHAFKPFGNGQRACIGQQFALHEATLVLGMMLKHFDFEDHTNYELDIKETLTLKPEGFVVKAKSKKIPLGGIPSPSTGQSAKKVRKKAENAHNTPLLVLYGSNMGTAEGTARDLADIAMSKGFAPQVATLDSHAGNLPREGAVLIVTASYNGHPPDNAKQFVDWLDQASADEVKGVRYSVFGCGDKNWATTYQKVPAFIDETLAAKGAENIADRGEADASDDFEGTYEEWREHMWSDVAAYFNLDIENSEDNKSTLSLQFVDSAADMPLAKMHGAFSTNVVASKELQQPGSARSTRHLEIELPKEASYQEGDHLGVIPRNYEGTVNRVTARFGLDASQQIRLEAEEEKLAHLPLAKTVSVEELLQYVELQDPVTRTQLRAMAAKTVCPPHKVELEALLEKQAYKEQVLAKRLTMLELLEKYPACEMKFSEFIALLPSIRPRYYSISSSPRVDEKQASITVSVVSGEAWSGYGEYKGIASNYLAELQEGDTITCFISTPQSEFTLPKDPETPLIMVGPGTGVAPFRGFVQARKQLKEQGQSLGEAHLYFGCRSPHEDYLYQEELENAQSEGIITLHTAFSRMPNQPKTYVQHVMEQDGKKLIELLDQGAHFYICGDGSQMAPAVEATLMKSYADVHQVSEADARLWLQQLEEKGRYAKDVWAG
modifications: mutant P450 35-E11 protein sequence
Usually Km stands for the concentration of substrate that gives half-maximal velocity. One may read the kcat as the number of substrate molecules converted per active site and unit of time at saturation. Turning to B2, in data set [1], the Michaelis-Menten constant (Km) is 1030 ± 57 µM and the kcat came to 12.7 ± 0.867 s⁻¹. For the same molecule, in data set [2], the “Relative background NADPH oxidation rate” value worked out at 1. In data set [3], the Michaelis constant (Km) turned out to be 370 ± 33 µM and the kcat was 11.8 ± 1.15 s⁻¹.

B3: 20-D3: P450 BM-3 variant, SEQ ID NO:11; 35-E11 plus H285R (protein)
chain: B2 chain with H285R
modifications: mutant P450 20-D3 protein sequence
notes: 35-E11 plus H285R
Regarding B3, the “Relative background NADPH oxidation rate” value in data set [2] is recorded as 1.6.

B4: P450PMO: P450 BM-3 variant, SEQ ID NO:125; 7-7 plus G443A and D698G; propane monooxygenase (protein)
chain: B2 chain with L52I, A74E, S82G, L188P, I366V, G443A, D698G
modifications: Mutant P450PMO protein sequence
notes: 7-7 plus G443A and D698G; propane monooxygenase
In the case of B4, the Km in data set [1] was 835 ± 117 µM; in data set [3], 430 ± 91 µM. Also, the kcat in data set [1] was determined as 2.5 ± 0.233 s⁻¹; in data set [3], 1.42 ± 0.283 s⁻¹. For the same molecule, the “hydroxylation products of laurate” value in “Reactions on laurate” was “no hydroxylation product could be detected; also recorded: no detectable amounts of hydroxylated fatty acids”.

Values taken from patent US12258605B2, “Alkane oxidation by modified hydroxylases” (The California Institute of Technology, priority 2005, dated 2025).
